This sample holds only a part of the variants without activity.
What was measured:
biotinyl-Leu-oxazolone = experiment: self-aminoacylation, catalytic enhancement (BLO) (fold over background); higher = more active; k-Seq, kA / k0A0; sequences stand for … in GGGAAUGGAUCCACAUCUACGAAUUC…UUCACUGCAGACUUGACGAAGCUG
Summary of the method: (§1)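 Mutagenized RNA pools with a 21-nt variable region (0.43 μM) were reacted with each biotinyl-aminoacyl-oxazolone at 2–1250 μM for 90 minutes at room temperature, in 50 μL HEPES/NaCl/KCl/MgCl2/CaCl2 buffer containing 5% acetonitrile at pH 6.9–7.0. RNA captured on streptavidin was quantified by triplicate qPCR and by Illumina sequencing. The fraction reacted for each sequence was fit to a pseudo-first-order model with bootstrapping, and catalytic enhancement is the median kA divided by the uncatalyzed rate, taken as the low-activity peak of a bimodal Gaussian fit.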

biotinyl-Phe-oxazolone = experiment: self-aminoacylation, catalytic enhancement (BFO) (fold over background); higher = more active; k-Seq, kA / k0A0; sequences stand for … in GGGAAUGGAUCCACAUCUACGAAUUC…UUCACUGCAGACUUGACGAAGCUG
Summary of the method: as §1

biotinyl-Ile-oxazolone = experiment: self-aminoacylation, catalytic enhancement (BIO) (fold over background); higher = more active; k-Seq, kA / k0A0; sequences stand for … in GGGAAUGGAUCCACAUCUACGAAUUC…UUCACUGCAGACUUGACGAAGCUG
Summary of the method: as §1

biotinyl-Val-oxazolone = experiment: self-aminoacylation, catalytic enhancement (BVO) (fold over background); higher = more active; k-Seq, kA / k0A0; sequences stand for … in GGGAAUGGAUCCACAUCUACGAAUUC…UUCACUGCAGACUUGACGAAGCUG
Summary of the method: as §1

biotinyl-Met-oxazolone = experiment: self-aminoacylation, catalytic enhancement (BMO) (fold over background); higher = more active; k-Seq, kA / k0A0; sequences stand for … in GGGAAUGGAUCCACAUCUACGAAUUC…UUCACUGCAGACUUGACGAAGCUG
Summary of the method: as §1

biotinyl-Trp-oxazolone = experiment: self-aminoacylation, catalytic enhancement (BWO) (fold over background); higher = more active; k-Seq, kA / k0A0; sequences stand for … in GGGAAUGGAUCCACAUCUACGAAUUC…UUCACUGCAGACUUGACGAAGCUG
Summary of the method: as §1

| Sequence | self-aminoacylation (biotinyl-Leu-oxazolone) | self-aminoacylation (biotinyl-Phe-oxazolone) | self-aminoacylation (biotinyl-Ile-oxazolone) | self-aminoacylation (biotinyl-Val-oxazolone) | self-aminoacylation (biotinyl-Met-oxazolone) | self-aminoacylation (biotinyl-Trp-oxazolone) |
| --- | --- | --- | --- | --- | --- | --- |
| AAGUUUGCUAAUAGUCGCAUC [Fam3.1 aminoacylation ribozyme variant] | 0.61 | 1.53 | 0.778 | 0.706 | 0.649 | 0.681 |
| AAGUUUGCUAAUAGUCGCAUG [Fam3.1 aminoacylation ribozyme variant] | 0.932 | 1.47 | 1.03 | 0.916 | 0.93 | 0.976 |
| AAGUUUGCUAAUAGUCGCGAG [Fam3.1 aminoacylation ribozyme variant] | 1.29 | 2.01 | 1.33 | 1.2 | 1.33 | 2 |
| AAGUUUGCUAAUAGUCGCUAU [Fam3.1 aminoacylation ribozyme variant] | 1.06 | 1.39 | 1.31 | 0.984 | 1.26 | 1.08 |
| AAGUUUGCUAAUAGUCGGAAU [Fam3.1 aminoacylation ribozyme variant] | 1.41 | 1.54 | 1.37 | 1.41 | 1.5 | 1.18 |
| AAGUUUGCUAAUAGUCGUAAG [Fam3.1 aminoacylation ribozyme variant] | 0.914 | 33 | 1.19 | 1.05 | 1.34 | 8.22 |
| AAGUUUGCUAAUAGUCGUAAU [Fam3.1 aminoacylation ribozyme variant] | 1.07 | 1.24 | 1.19 | 1.23 | 1.19 | 1.13 |
| AAGUUUGCUAAUAGUGGCACG [Fam3.1 aminoacylation ribozyme variant] | 0.622 | 0.682 | 0.684 | 0.689 | 0.636 | 0.733 |
| AAGUUUGCUAAUCGCCGCAAG [Fam3.1 aminoacylation ribozyme variant] | 1.54 | 2.82 | 1.97 | 1.47 | 1.56 | 4.38 |
| AAGUUUGCUAAUCGUCGGAAG [Fam3.1 aminoacylation ribozyme variant] | 0.799 | 1.64 | 0.972 | 0.869 | 0.704 | 1.42 |
| AAGUUUGCUAAUCUUCGCAAG [Fam3.1 aminoacylation ribozyme variant] | 0.95 | 0.816 | 1.11 | 1.07 | 1.07 | 1.19 |
| AAGUUUGCUAAUGGUCGCCAG [Fam3.1 aminoacylation ribozyme variant] | 1.11 | 5.81 | 1.1 | 0.896 | 1.09 | 1.52 |
| AAGUUUGCUAAUUCUCGCAAG [Fam3.1 aminoacylation ribozyme variant] | 1.08 | 0.747 | 1.26 | 0.999 | 1.06 | 2.64 |
| AAGUUUGCUAAUUGUCGCAGG [Fam3.1 aminoacylation ribozyme variant] | 1.45 | 2.72 | 1.19 | 1.3 | 1.43 | 1.34 |
| AAGUUUGCUAAUUGUCGCAUG [Fam3.1 aminoacylation ribozyme variant] | 1.32 | 1.11 | 0.982 | 1.07 | 1.18 | 1.49 |
| AAGUUUGCUAAUUGUCGCUAG [Fam3.1 aminoacylation ribozyme variant] | 1.17 | 0.848 | 0.95 | 1.02 | 1 | 1.08 |
| AAGUUUGCUAAUUGUUGCAAG [Fam3.1 aminoacylation ribozyme variant] | 0.945 | 1.11 | 0.929 | 0.775 | 0.901 | 0.926 |
| AAGUUUGCUACUAGUCGCAAG [Fam3.1 aminoacylation ribozyme variant] | 0.766 | 1.13 | 0.824 | 0.838 | 0.802 | 0.775 |
| AAGUUUGCUACUAGUCGGAAG [Fam3.1 aminoacylation ribozyme variant] | 0.518 | 0.777 | 0.835 | 0.749 | 0.712 | 0.866 |
| AAGUUUGCUACUAGUCGUAAG [Fam3.1 aminoacylation ribozyme variant] | 0.759 | 0.833 | 0.772 | 0.783 | 0.848 | 0.867 |
| AAGUUUGCUACUUGUCGCAAG [Fam3.1 aminoacylation ribozyme variant] | 1.06 | 1.01 | 1.05 | 1.12 | 0.928 | 1.21 |
| AAGUUUGCUAGUAGUAGCAAG [Fam3.1 aminoacylation ribozyme variant] | 1 | 1.62 | 1.24 | 1.18 | 0.808 | 1.2 |

| Sequence | self-aminoacylation (biotinyl-Leu-oxazolone) | self-aminoacylation (biotinyl-Phe-oxazolone) | self-aminoacylation (biotinyl-Ile-oxazolone) | self-aminoacylation (biotinyl-Val-oxazolone) | self-aminoacylation (biotinyl-Met-oxazolone) | self-aminoacylation (biotinyl-Trp-oxazolone) |
| --- | --- | --- | --- | --- | --- | --- |
| AAGUUUGCUAGUAGUCCCAAG [Fam3.1 aminoacylation ribozyme variant] | 0.873 | 1.65 | 1.01 | 1.14 | 0.75 | 1.68 |
| AAGUUUGCUAGUAGUCGCAAG [Fam3.1 aminoacylation ribozyme variant] | 0.706 | 1.13 | 0.746 | 0.773 | 0.745 | 0.851 |
| AAGUUUGCUAUUACUCGCAAG [Fam3.1 aminoacylation ribozyme variant] | 0.82 | 1.09 | 0.728 | 0.868 | 0.734 | 0.738 |
| AAGUUUGCUAUUAGGCGCAAG [Fam3.1 aminoacylation ribozyme variant] | 0.546 | 0.81 | 0.746 | 0.681 | 0.591 | 0.841 |
| AAGUUUGCUAUUAGUCGCAAG [Fam3.1 aminoacylation ribozyme variant] | 0.76 | 1.08 | 0.848 | 0.823 | 0.814 | 0.826 |
| AAGUUUGCUAUUAGUCGCCAG [Fam3.1 aminoacylation ribozyme variant] | 1.12 | 0.947 | 1.01 | 0.818 | 0.864 | 0.849 |
| AAGUUUGCUAUUAGUCUCAAG [Fam3.1 aminoacylation ribozyme variant] | 0.928 | 1.66 | 0.998 | 1.07 | 0.976 | 0.975 |
| AAGUUUGCUCAUACUCGCAAG [Fam3.1 aminoacylation ribozyme variant] | 0.715 | 0.813 | 0.777 | 0.752 | 0.742 | 0.748 |
| AAGUUUGCUCAUAGUAGCAAG [Fam3.1 aminoacylation ribozyme variant] | 0.817 | 1.58 | 0.928 | 1.09 | 0.727 | 0.786 |
| AAGUUUGCUCAUAGUUGCAAG [Fam3.1 aminoacylation ribozyme variant] | 0.896 | 1.04 | 0.916 | 0.772 | 0.916 | 0.888 |
| AAGUUUGCUGAUAGCCGCAAG [Fam3.1 aminoacylation ribozyme variant] | 0.736 | 1.49 | 0.846 | 0.968 | 0.91 | 0.586 |
| AAGUUUGCUGAUAGUAGCAAG [Fam3.1 aminoacylation ribozyme variant] | 0.88 | 1.41 | 0.892 | 1.24 | 1.07 | 1.05 |
| AAGUUUGCUGAUAGUCACAAG [Fam3.1 aminoacylation ribozyme variant] | 1.08 | 1.23 | 1.15 | 1.28 | 1.2 | 1.62 |
| AAGUUUGCUGAUAGUCCCAAG [Fam3.1 aminoacylation ribozyme variant] | 0.786 | 0.972 | 1.17 | 0.847 | 0.626 | 1.08 |
| AAGUUUGCUGAUAGUCGCCAG [Fam3.1 aminoacylation ribozyme variant] | 2.22 | 4.26 | 1.38 | 1.53 | 1.41 | 1.44 |
| AAGUUUGCUGAUAGUCGUAAG [Fam3.1 aminoacylation ribozyme variant] | 0.674 | 0.944 | 0.854 | 0.93 | 0.951 | 0.823 |
| AAGUUUGCUGAUUGUCGCAAG [Fam3.1 aminoacylation ribozyme variant] | 1.11 | 1.02 | 0.948 | 1.02 | 1.09 | 1.37 |
| AAGUUUGCUUAAAGUCGCAAG [Fam3.1 aminoacylation ribozyme variant] | 0.896 | 1.07 | 0.972 | 0.897 | 0.754 | 1.1 |
| AAGUUUGCUUAGAGUCGCAAG [Fam3.1 aminoacylation ribozyme variant] | 0.592 | 0.969 | 0.725 | 0.785 | 0.757 | 1 |
| AAGUUUGCUUAUAGUCGCCAG [Fam3.1 aminoacylation ribozyme variant] | 0.933 | 0.665 | 1.08 | 0.955 | 0.883 | 1.08 |
| AAGUUUGCUUAUAGUCGCUAG [Fam3.1 aminoacylation ribozyme variant] | 0.628 | 1 | 0.884 | 0.646 | 0.705 | 0.61 |
